{
  "source": "patent US8637043B2",
  "about": "“Compositions useful as ligands for the formyl peptide receptor like 1 receptor and methods of use thereof” (Chemocentryx, Inc., priority 2001, dated 2014)",
  "molecules": {"B1": {"name": "mC10: chemokine obtained from R&D Systems (protein, UniProt P27784 22-116, looked up)", "C-C motif chemokine 6": "GLIQEMEKEDRRYNPPIIHQGFQDTSSDCCFSYATQIPCKRFIYYFPTSGGCIKPGIIFISRRGTQVCADPSDRRVQRCLSTLKQGPRSGNKVIA"}},
  "key": {"[1]": {"test_system": "dendritic cells", "experiment": "Dendritic cell infiltration after intradermal injection in mice (anti-DEC-205 staining)", "type": "in vivo", "design": "key to Dendritic cell infiltration Score / Infiltration Score: 0 = none, 1 = slight, 2 = mild, 3 = moderate, 4 = severe", "text": "The following chemokines were obtained from R&D Systems (Minneapolis, Minn.): vMCK-2, mC10, and GM-CSF. The following peptides were synthesized at Phoenix Pharmaceuticals (San Carlos, Calif.): SHAAYtide (SEQ ID NO:6), several […] MODIFIED peptides of SHAAGtide variant (SEQ ID NO:) (i.e. cyclized using the MPR-Cys linked cyclization), control peptide (SEQ ID NO:33, […]Gin Pro Gly lie Lys Arg Arg Trp Leu Met), randomly conjugated to OVA in either a 1:1 or 1:4 ratio (by MBS coupling method), and conjugated to OVA at the C-terminus (C-term, made by the addition of a cysteine), and SHAAGtide variant (SEQ ID NO:3). In three separate experiments, chemokines or peptides (2 μg or 20 μg in PBS) were injected intradermally into BALB/c or C57BI/6 mice (Jackson Laboratory; Bar Harbor, Me.). In each experiment, one mouse received an injection of PBS only as a negative control. At various times after injection, the mice were euthanized, and the area around the injection site was excised and subjected to immunohistology. Frozen sections were stained with anti-DEC-205 antibody (Bio-Whittaker Molecular Applications; Rockland, Me.) that recognizes a dendritic cell-specific molecule (Kraal et al., 1986). A relative staining number on a scale of […] was assigned to each section (0, none; 1, slight; 2, mild; 3, moderate; 4, severe)."}, "[2]": {"test_system": "mononuclear cells", "experiment": "Mononuclear cell infiltration into the dermis after intradermal injection", "type": "in vivo, Rhesus macaques", "method": "Different amounts (8, 20, or 60 μg in 100 μl PBS) of different polypeptides (see Table 18) were injected intradermally in Rhesus macaques under anesthesia. Twenty-four and 48 hours later, 6 mm skin punch biopsies were taken using aseptic technique and then bisected. One portion of the biopsy was embedded in OCT compound, flash frozen in liquid nitrogen and stored at −70° C. The other portion was immersed in formalin and embedded in paraffin wax; subsequently, sections cut on a microtome were stained with hematoxylin and eosin and then microscopically examined for cell infiltration into the dermis (Table 18). As a negative control, monkeys were injected with PBS lacking any polypeptides.\nMononuclear cell infiltration was scored on a scale of 0 to 5:0, very mild perivascular mononuclear inflammatory infiltration throughout the dermis; 1, a mild perivascular mononuclear inflammatory infiltrate seen throughout the dermis; 2, a mild/moderate perivascular mononuclear inflammatory infiltrate seen throughout the dermis; 3, a moderate perivascular mononuclear inflammatory infiltrate seen throughout the dermis; 4, an extensive perivascular mononuclear inflammatory infiltrate seen throughout the dermis; 5, a florid perivascular mononuclear inflammatory infiltrate seen throughout the dermis. intermediate scores are indicates, e.g., “⅔” represents a score between 2 and 3."}, "[3]": {"test_system": "infiltrating cells", "experiment": "Immunohistochemistry of infiltrating cells in injected skin samples", "type": "in vivo, Rhesus macaques", "settings": "injected skin samples of Example 14", "method": "To better define the identity of the infiltrating cells seen in Example 14 (Table 18), the same samples were analyzed by immunohistochemistry using antibodies specific for different cell types. These antibodies included: CD68 (expressed on macrophages, neutrophils and dendritic cells), MHC II (antigen-presenting cells, e.g. macrophages and dendritic cells), HAM-56 (macrophages), fascin (dendritic cells, endothelial cells and epithelial cells), elastase (neutrophils), cytokeratin (epithelial cells), CD3 (T cells), CD20 (B cells), and CD1a (Langerhans cells)."}},
  "note": "Where “and” joins values, the source holds several entries; their conditions need not be identical. Equal values may be shown once.",
  "data": [
    {"molecule": "B1", "values": [
      {"measurement": "Dendritic cell infiltration Score", "setting": "[1]; BALBc mice, 2 μg, 6 hours", "result": 2},
      {"measurement": "Dendritic cell infiltration Score", "setting": "[1]; BALBc mice, 2 μg, 30 hours", "result": "3 and 2"},
      {"measurement": "Dendritic cell infiltration Score", "setting": "[1]; BALBc mice, 20 μg, 6 hours", "result": 2},
      {"measurement": "Dendritic cell infiltration Score", "setting": "[1]; C57B1/6 mice, 2 μg dose, 6 hours, 0 none, 1 slight, 2 mild, 3 moderate, 4 severe, one animal per line", "result": "1 (2×) and 2"},
      {"measurement": "Dendritic cell infiltration Score", "setting": "[1]; C57B1/6 mice, 2 μg dose, 30 hours", "result": "2 and 1"},
      {"measurement": "Dendritic cell infiltration Score", "setting": "[1]; C57B1/6 mice, 2 μg dose, 51 hours", "result": 0},
      {"measurement": "infiltration of DEC-205-labeled cells", "setting": "[1]; summary of Tables 15, 16 and 17", "result": "excellent infiltration"},
      {"measurement": "Mononuclear cell infiltration score", "setting": "[2]; 8 μg, 24 hours", "result": 1},
      {"measurement": "Mononuclear cell infiltration score", "setting": "[2]; 8 μg, 48 hours", "result": 0},
      {"measurement": "Mononuclear cell infiltration score", "setting": "[2]; 20 μg, 24 hours", "result": 0},
      {"measurement": "Mononuclear cell infiltration score", "setting": "[2]; 20 μg, 48 hours", "result": 0},
      {"measurement": "Mononuclear cell infiltration score", "setting": "[2]; 60 μg intradermally, 24 hours, scale 0 (very mild) to 5 (florid)", "result": 0},
      {"measurement": "Mononuclear cell infiltration score", "setting": "[2]; 60 μg, 48 hours", "result": 0},
      {"measurement": "cell infiltration, in words", "setting": "[2]; summary of Table 18", "result": "little to no infiltration"},
      {"measurement": "identity of infiltrating cells", "setting": "[3]", "result": "primarily antigen-presenting cells, including macrophages and dendritic cells, but few neutrophils"}
    ]}
  ]
}
